Target: CD19 on Nalm6 leukemia cells (UniProt P15391)
Assay: cell-based or functional assay

Sequence of UniProt P15391 (P15391 20-556 limits assumed): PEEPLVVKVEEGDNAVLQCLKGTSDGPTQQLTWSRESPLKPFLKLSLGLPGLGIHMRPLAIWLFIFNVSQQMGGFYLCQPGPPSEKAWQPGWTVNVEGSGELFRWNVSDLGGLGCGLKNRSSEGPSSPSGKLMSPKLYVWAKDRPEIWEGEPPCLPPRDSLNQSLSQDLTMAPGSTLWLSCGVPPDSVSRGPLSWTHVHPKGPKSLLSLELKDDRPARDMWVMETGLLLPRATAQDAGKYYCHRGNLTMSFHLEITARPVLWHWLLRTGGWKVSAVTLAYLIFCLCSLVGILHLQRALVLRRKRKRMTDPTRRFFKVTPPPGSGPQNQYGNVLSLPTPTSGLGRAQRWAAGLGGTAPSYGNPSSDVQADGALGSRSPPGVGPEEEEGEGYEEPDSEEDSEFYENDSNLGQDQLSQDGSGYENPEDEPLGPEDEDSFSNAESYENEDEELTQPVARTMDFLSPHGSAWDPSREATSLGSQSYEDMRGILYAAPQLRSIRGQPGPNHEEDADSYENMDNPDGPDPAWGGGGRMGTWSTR

B1: CD19 CAR (receptor, from a related filing)
chain: EVKLQQSGAELVRPGSSVKISCKASGYAFSSYWMNWVKQRPGQGLEWIGQIYPGDGDTNYNGKFKGQATLTADKSSSTAYMQLSGLTSEDSAVYFCARKTISSVVDFYFDYWGQGTTVTVSSGGGGSGGGGSGGGGSDIELTQSPKFMSTSVGDRVSVTCKASQNVGTNVAWYQQKPGQSPKPLIYSATYRNSGVPDRFTGSGSGTDFTLTITNVQSKDLADYFCQQYNRYPYTSGGGTKLEIKRAAAIEVMYPPPYLDNEKSNGTIIHVKGKHLCPSPLFPGPSKPFWVLVVVGGVLACYSLLVTVAFIIFWVRSKRSRLLHSDYMNMTPRRPGPTRKHYQPYAPPRDFAAYRSRVKFSRSADAPAYQQGQNQLYNELNLGRREEYDVLDKRRGRDPEMGGKPRRKNPQEGLYNELQKDKMAEAYSEIGMKGERRRGKGHDGLYQGLSTATKDTYDALHMQALPPR
For B1, the Tumor Cell Killing Percentage (Nalm6 killed, 22 h co-culture, FACS with counting beads); E/T 0.024; CD19 level high was 32%, the Tumor Cell Killing Percentage (Nalm6 killed, 22 h co-culture, FACS with counting beads); E/T 0.024; CD19 level low was 16.3% and the Tumor Cell Killing Percentage (Nalm6 killed, 22 h co-culture, FACS with counting beads); E/T 0.024; CD19 level medium was 17.2%. The Tumor Cell Killing Percentage (Nalm6 killed, 22 h co-culture, FACS with counting beads); E/T 0.024; CD19 level very low was 0%, the Tumor Cell Killing Percentage (Nalm6 killed, 22 h co-culture, FACS with counting beads); E/T 0.12; CD19 level high was 63.4% and the Tumor Cell Killing Percentage (Nalm6 killed, 22 h co-culture, FACS with counting beads); E/T 0.12; CD19 level low was 53.3%. It also gave a Tumor Cell Killing Percentage (Nalm6 killed, 22 h co-culture, FACS with counting beads); E/T 0.12; CD19 level medium of 63.6%, a Tumor Cell Killing Percentage (Nalm6 killed, 22 h co-culture, FACS with counting beads); E/T 0.12; CD19 level very low of 0.4% and a Tumor Cell Killing Percentage (Nalm6 killed, 22 h co-culture, FACS with counting beads); E/T 0.6; CD19 level high of 84.4%. The Tumor Cell Killing Percentage (Nalm6 killed, 22 h co-culture, FACS with counting beads); E/T 0.6; CD19 level low was 77.2%, the Tumor Cell Killing Percentage (Nalm6 killed, 22 h co-culture, FACS with counting beads); E/T 0.6; CD19 level medium was 79.4% and the Tumor Cell Killing Percentage (Nalm6 killed, 22 h co-culture, FACS with counting beads); E/T 0.6; CD19 level very low was 8.37%.

Reference: patent publication US20210030804A1
